We go through eight molecules from article PMC5983490, “White-rot basidiomycetes Junghuhnia nitida and Steccherinum bourdotii: Oxidative potential and laccase properties in comparison with Trametes hirsuta and Coriolopsis caperata” (PLoS ONE, 2018).

Data set [1] relates to T1, JnL (Junghuhnia nitida laccase).
T1 construct: peptides most similar to S. murashkinskyi laccase 2 / A. faginea laccase A
As to the kind of experiment: spectrophotometric oxidation, […] nm, non-linear fit. In kind it is biochemical. The note with it: 0.1 M McIlvaine buffer pH 4.5, 25 °C; read-out: Steccherinaceae group / JnL.

Data set [2] relates to T2, SbL (Steccherinum bourdotii laccase).
T2 construct: peptides most similar to S. murashkinskyi laccase 2 / A. faginea laccase A
As to the kind of experiment: spectrophotometric oxidation, […] nm, non-linear fit. In kind it is biochemical. The note with it: 0.1 M McIlvaine buffer pH 4.5, 25 °C; read-out: Steccherinaceae group / SbL.

For data set [3] the test system is unchanged. As to the kind of experiment: spectrophotometric oxidation, […] nm, non-linear fit. It counts as biochemical. The settings on record: 0.1 M McIlvaine buffer pH 4.5, 25 °C; read-out: Steccherinaceae group / SbL. This is another data set of the same source.
In data set [4] the test system is JnL (Junghuhnia nitida laccase). The note with it: read-out: Steccherinaceae group / JnL; 0.1 M McIlvaine buffer pH 4.5, 25 °C.
Data set [5] shares this test system. The note with it: read-out: Steccherinaceae group / JnL; 0.1 M McIlvaine buffer pH 4.5, 25 °C. This is another data set of the same source.
The subject of data set [6] is SbL (Steccherinum bourdotii laccase). The note with it: read-out: Steccherinaceae group / JnL; 0.1 M McIlvaine buffer pH 4.5, 25 °C.
For data set [7], the system named is T2, SbL (Steccherinum bourdotii laccase). As to the kind of experiment: spectrophotometric oxidation, […] nm, non-linear fit. The settings on record: 0.1 M McIlvaine buffer pH 4.5, 25 °C; read-out: Steccherinaceae group / SbL. In kind it is biochemical. The source holds these as a separate data set.
The subject of data set [8] is T1, JnL (Junghuhnia nitida laccase). In words: spectrophotometric oxidation, […] nm, non-linear fit. The settings on record: 0.1 M McIlvaine buffer pH 4.5, 25 °C; read-out: Steccherinaceae group / JnL. In kind it is biochemical. This is another data set of the same source.
Data set [9] has as its system T2, SbL (Steccherinum bourdotii laccase). In words: spectrophotometric oxidation, […] nm, non-linear fit. It counts as biochemical. The settings on record: 0.1 M McIlvaine buffer pH 4.5, 25 °C; read-out: Steccherinaceae group / SbL. This is another data set of the same source.
For data set [10], the system named is T1, JnL (Junghuhnia nitida laccase). As to the kind of experiment: spectrophotometric oxidation, […] nm, non-linear fit. The note with it: 0.1 M McIlvaine buffer pH 4.5, 25 °C; read-out: Steccherinaceae group / JnL. It counts as biochemical. The source holds these as a separate data set.
Data set [11] relates to T2, SbL (Steccherinum bourdotii laccase). In words: oxygen consumption, Clark-type electrode, non-linear fit. It counts as biochemical. The settings on record: 0.1 M citrate-phosphate buffer pH 4.5, 25 °C; read-out: Steccherinaceae group / SbL. The source says: oxygen consumption, Clark-type electrode, non-linear fit on SbL (Steccherinum bourdotii laccase)
In data set [12] the test system is T1, JnL (Junghuhnia nitida laccase). The description is as above. It counts as biochemical. The settings on record: 0.1 M citrate-phosphate buffer pH 4.5, 25 °C; read-out: Steccherinaceae group / JnL. The source says: oxygen consumption, Clark-type electrode, non-linear fit on JnL (Junghuhnia nitida laccase)
Substrate in data set [13]: COc1cc(C=NN=Cc2cc(OC)c(O)c(OC)c2)cc(OC)c1O
As to the kind of experiment: purified protein. It counts as biochemical, Cerrena caperata. The note with it: 0.1 M McIlvaine buffer pH 4.5, 25 °C.

Substrate in data set [14]: COc1cc(/C=C/C(=O)O)cc(OC)c1O
As to the kind of experiment: purified protein. In kind it is biochemical, Cerrena caperata. The note with it: 0.1 M McIlvaine buffer pH 4.5, 25 °C.

Substrate in data set [15]: COc1cc(/C=C/C(=O)O)ccc1O
As to the kind of experiment: purified protein. The note with it: 0.1 M McIlvaine buffer pH 4.5, 25 °C.

Substrate in data set [16]: Oc1ccccc1O
In words: purified protein, by the assay type. Details: Laccase substrate oxidation kinetics, spectrophotometric initial rates, 25 °C, McIlvaine buffer pH 4.5. The settings on record: 25.0 °C. On the procedure: (§1) Kinetic constants were measured spectrophotometrically using a PerkinElmer Lambda 35 spectrophotometer (USA) at 25°C. […] 10 μl of enzyme solution at a concentration of 1 mg·ml^-1 (50 mM potassium phosphate buffer pH 6.5) was added to 2 ml substrate solution in 0.1 M McIlvaine buffer, pH 4.5. The reaction rate was measured by monitoring of the absorbance change during 3 min. […] It is interesting that syringyl-type substrates like 2,6-DMP, sinapic acid and syringaldazine were better in terms of Km and kcat/Km values for JnL and SbL compared to CcL and ThL.

Substrate in data set [17]: COc1ccccc1O
In words: purified protein, by the assay type. Set-up: Laccase substrate oxidation kinetics, spectrophotometric initial rates, 25 °C, McIlvaine buffer pH 4.5. The settings on record: 25.0 °C. On the procedure:
as §1

Substrate in data set [18]: COc1cccc(OC)c1O
In words: purified protein, by the assay type. Set-up: Laccase substrate oxidation kinetics, spectrophotometric initial rates, 25 °C, McIlvaine buffer pH 4.5. The note with it: 25.0 °C. On the procedure: as §1

Substrate in data set [19]: O=C(O)c1cc(O)c(O)c(O)c1
As to the kind of experiment: purified protein, by the assay type. Set-up: Laccase substrate oxidation kinetics, spectrophotometric initial rates, 25 °C, McIlvaine buffer pH 4.5. The note with it: 25.0 °C. On the procedure: as §1

Substrate in data set [20]: COc1cc([C@@H]2OC[C@@H]3[C@H]2CO[C@H]3c2ccc(O)c(OC)c2)ccc1O
As to the kind of experiment: oxygen consumption, Clark-type electrode, non-linear fit. It counts as biochemical, Trametes hirsuta. The note with it: 0.1 M citrate-phosphate buffer pH 4.5, 25 °C. The source says: oxygen consumption, Clark-type electrode, non-linear fit on ThL (Trametes hirsuta laccase)

Substrate in data set [21]: COc1cccc(OC)c1O
As to the kind of experiment: purified protein. It counts as biochemical, Trametes hirsuta. The note with it: 0.1 M McIlvaine buffer pH 4.5, 25 °C.

Substrate in data set [22]: COc1cc(/C=C/C(=O)O)cc(OC)c1O
In words: purified protein. The settings on record: 0.1 M McIlvaine buffer pH 4.5, 25 °C. In kind it is biochemical, Trametes hirsuta.

Substrate in data set [23]: COc1cc(/C=C/C(=O)O)ccc1O
In words: purified protein, by the assay type. The note with it: 25.0 °C. Details: Laccase substrate oxidation kinetics, spectrophotometric initial rates, 25 °C, McIlvaine buffer pH 4.5. On the procedure:
as §1

Substrate in data set [24]: COc1cc(C=NN=Cc2cc(OC)c(O)c(OC)c2)cc(OC)c1O
In words: purified protein, by the assay type. Set-up: Laccase substrate oxidation kinetics, spectrophotometric initial rates, 25 °C, McIlvaine buffer pH 4.5. The settings on record: 25.0 °C. On the procedure: as §1

Like-named read-outs stand apart in the source and are kept apart here.

`COc1cccc(OC)c1O` [2,6-DMP]: the Km in data set [1] amounted to 7 ± 1 µM; in data set [2] it was 8 ± 1 µM.
On to `COc1cc(/C=C/C(=O)O)ccc1O` [Ferulic acid], for which the values for the Km in data set [3] and in data set [4] were 19 ± 2 µM and 19 ± 1 µM, respectively.
For the molecule `CCn1c(=NN=c2sc3cc(S(=O)(=O)O)ccc3n2CC)sc2cc(S(=O)(=O)O)ccc21` [ABTS], the Km in data set [5] and in data set [6] was 17 ± 2 µM in each case.
`COc1cc(/C=C/C(=O)O)cc(OC)c1O` [Sinapic acid]: the Km was determined as 8 ± 1 µM in [7] and 9 ± 1 µM in data set [8].
Turning to `COc1cc(C=NN=Cc2cc(OC)c(O)c(OC)c2)cc(OC)c1O` [Syringaldazine], the Km in data set [9] was determined as 1000 ± 300 nM; in data set [10], 2000 ± 400 nM.
Turning to `COc1cc([C@@H]2OC[C@@H]3[C@H]2CO[C@H]3c2ccc(O)c(OC)c2)ccc1O` [Pinoresinol], the Km amounted to 149 ± 22 µM in data set [11] and 89 ± 12 µM in [12].

B1: CcL (Coriolopsis caperata laccase) (Cerrena caperata) (protein)
chain: GIGPVTDLTISDGPVSPDGFTRQAILVNNQFPSPLITGNKGDRFQLNVIDNMNNHTMLKSTSIHWHGFFQHGTNWADGPAFVNQCPISPGHSFLYDFQVPDQAGTFWYHSHLSTQYCDGLRGPIVVYDPQDPHKDLYDVDDDSTVITLADWYHLAAKVGPAVPTADATLINGLGRSISTLNADLAVISVTKGKRYRFRLVSLSCDPNHTFSIDGHTMTVIEADSVNLKPQVVDSIQIFAAQRYSFVLNADQDIGNYWIRAMPNSGTRNFDGGVNSAILRYDGADPVEPTTTQTPSSQPLVESALTTLEGTAAPGSPTAGGVDLAINMAFGFAGGRFTINGASFTPPTVPVLLQILSGAQNAQDLLPTGSVYSLPANADIEISLPATAAAPGFPHPFHLHGHTFAVVRSAGSSTYNYANPVYRDVVSTGSPGDNVTIRFRTDNPGPWFLHCHIDFHLEAGFAVVMAEDIPDVAAVNPVPQAWSDLCPTYNALDPNDQ
The term kcat denotes the maximal rate divided by the concentration of active sites. By kcat/Km is commonly meant the second-order rate constant that governs catalysis at low substrate concentration. With B1, the Km was determined as 5 ± 0.3 µM in data set [13]; 17 ± 2 µM in [14]; 20 ± 2 µM in data set [15]; 815 µM in data set [16]; 696 µM in data set [17]; 65 µM in data set [18]. In data set [19], the Km came to 129 µM. Moreover, the kcat amounted to 122 ± 2 s⁻¹ in data set [13]; 324 ± 31 s⁻¹ in data set [14]; 234 s⁻¹ in data set [15]; 269 ± 6 s⁻¹ in data set [16]; 165 ± 12 s⁻¹ in data set [17]; 121 ± 8 s⁻¹ in [18]. In addition, the kcat in data set [19] is 55 ± 2 s⁻¹. Moreover, the kcat/Km in data set [13] came to 2.44e+07 M⁻¹ s⁻¹; in data set [14], 1.91e+07 M⁻¹ s⁻¹; in data set [15], 1.17e+07 M⁻¹ s⁻¹; in data set [16], 330000 M⁻¹ s⁻¹; in [17], 237000 M⁻¹ s⁻¹; in data set [18] it was 1.86e+06 M⁻¹ s⁻¹. The kcat/Km in [19] was found to be 434000 M⁻¹ s⁻¹.

B2: ThL (Trametes hirsuta laccase) (Trametes hirsuta) (protein)
chain: AVGPVADLTITDAAVSPDGFSRQAVVVNGVTPGPLVAGNIGDRFQLNVIDNLTNHTMLKSTSIHWHGFFQHGTNWADGPAFINQCPISPGHSFLYDFQVPDQAGTFWYHSHLSTQYCDGLRGPFVVYDPNDPHASRYDVDNDDTVITLADWYHTAAKLGPRFPGGADATLINGKGRAPSDSPAELSVIKVTKGKRYRFRLVSLSCNPNHTFSIDGHNLTIIEVDSVNSQPLEVDSIQIFAAQRYSFVLDANQAVDNYWIRANPNFGNVGFDGGINSAILRYDGAPAVEPTTNQTTSVKPLNEVDLHPLVSTPVPGSPSSGGVDKAINMAFNFNGSNFFINGASFVPPTVPVLLQILSGAQTAQDLLPSGSVYVLPSNASIEISFPATAAAPGAPHPFHLHGHTFAVVRSAGSTVYNYDNPIFRDVVSTGTPAAGDNVTIRFDTNNPGPWFLHCHIDFHLEGGFAVVMAEDTPDVKAVNPVPQAWSDLCPTYDALDPNDQ
As for B2, the Km worked out at 61 ± 8 µM in data set [20]; 24 ± 2 µM in data set [21]; 13 ± 1 µM in [22]; 183 µM in data set [16]; 28 µM in [23]; 173 µM in [17]. In addition, the Km came to 34 µM in data set [24] and 223 µM in data set [19]. In addition, the kcat in data set [20] was 73 ± 3 s⁻¹; in [21] it was 128 ± 11 s⁻¹; in data set [22] it was 317 ± 23 s⁻¹; in [16] it was 302 ± 27 s⁻¹; in data set [23] it was 270 ± 25 s⁻¹; in [17] it was 162 ± 10 s⁻¹. For the same molecule, the kcat in [24] is 131 ± 10 s⁻¹; in data set [19], 58 ± 3 s⁻¹. The catalytic efficiency (kcat/Km) in data set [20] was found to be 1.2e+06 M⁻¹ s⁻¹; in data set [21] it was 5.33e+06 M⁻¹ s⁻¹; in [22] it was 2.44e+07 M⁻¹ s⁻¹; in data set [16] it was 1.65e+06 M⁻¹ s⁻¹; in data set [23], 9.64e+06 M⁻¹ s⁻¹; in data set [17] it was 976000 M⁻¹ s⁻¹. Besides, the kcat/Km in data set [24] was found to be 3.85e+06 M⁻¹ s⁻¹; in [19] it was 260000 M⁻¹ s⁻¹.
